B1: Treacle protein (Homo sapiens), Q13428 (parent)
chain: MAEARKRRELLPLIYHHLLRAGYVRAAREVKEQSGQKCFLAQPVTLLDIYTHWQQTSELGRKRKAEEDAALQAKKTRVSDPISTSESSEEEEEAEAETAKATPRLASTNSSVLGADLPSSMKEKAKAETEKAGKTGNSMPHPATGKTVANLLSGKSPRKSAEPSANTTLVSETEEEGSVPAFGAAAKPGMVSAGQADSSSEDTSSSSDETDVEGKPSVKPAQVKASSVSTKESPARKAAPAPGKVGDVTPQVKGGALPPAKRAKKPEEESESSEEGSESEEEAPAGTRSQVKASEKILQVRAASAPAKGTPGKGATPAPPGKAGAVASQTKAGKPEEDSESSSEESSDSEEETPAAKALLQAKASGKTSQVGAASAPAKESPRKGAAPAPPGKTGPAVAKAQAGKREEDSQSSSEESDSEEEAPAQAKPSGKAPQVRAASAPAKESPRKGAAPAPPRKTGPAAAQVQVGKQEEDSRSSSEESDSDREALAAMNAAQVKPLGKSPQVKPASTMGMGPLGKGAGPVPPGKVGPATPSAQVGKWEEDSESSSEESSDSSDGEVPTAVAPAQEKSLGNILQAKPTSSPAKGPPQKAGPVAVQVKAEKPMDNSESSEESSDSADSEEAPAAMTAAQAKPALKIPQTKACPKKTNTTASAKVAPVRVGTQAPRKAGTATSPAGSSPAVAGGTQRPAEDSSSSEESDSEEEKTGLAVTVGQAKSVGKGLQVKAASVPVKGSLGQGTAPVLPGKTGPTVTQVKAEKQEDSESSEEESDSEEAAASPAQVKTSVKKTQAKANPAAARAPSAKGTISAPGKVVTAAAQAKQRSPSKVKPPVRNPQNSTVLARGPASVPSVGKAVATAAQAQTGPEEDSGSSEEESDSEEEAETLAQVKPSGKTHQIRAALAPAKESPRKGAAPTPPGKTGPSAAQAGKQDDSGSSSEESDSDGEAPAAVTSAQVIKPPLIFVDPNRSPAGPAATPAQAQAASTPRKARASESTARSSSSESEDEDVIPATQCLTPGIRTNVVTMPTAHPRIAPKASMAGASSSKESSRISDGKKQEGPATQVSKKNPASLPLTQAALKVLAQKASEAQPPVARTQPSSGVDSAVGTLPATSPQSTSVQAKGTNKLRKPKLPEVQQATKAPESSDDSEDSSDSSSGSEEDGEGPQGAKSAHTLGPTPSRTETLVEETAAESSEDDVVAPSQSLLSGYMTPGLTPANSQASKATPKLDSSPSVSSTLAAKDDPDGKQEAKPQQAAGMLSPKTGGKEAASGTTPQKSRKPKKGAGNPQASTLALQSNITQCLLGQPWPLNEAQVQASVVKVLTELLEQERKKVVDTTKESSRKGWESRKRKLSGDQPAARTPRSKKKKKLGAGEGGEASVSPEKTSTTSKGKAKRDKASGDVKEKKGKGSLGSQGAKDEPEEELQKGMGTVEGGDQSNPKSKKEKKKSDKRKKDKEKKEKKKKAKKASTKDSESPSQKKKKKKKKTAEQTV
B2: Nibrin (Homo sapiens), O60934 (parent)
chain: MWKLLPAAGPAGGEPYRLLTGVEYVVGRKNCAILIENDQSISRNHAVLTANFSVTNLSQTDEIPVLTLKDNSKYGTFVNEEKMQNGFSRTLKSGDGITFGVFGSKFRIEYEPLVACSSCLDVSGKTALNQAILQLGGFTVNNWTEECTHLVMVSVKVTIKTICALICGRPIVKPEYFTEFLKAVESKKQPPQIESFYPPLDEPSIGSKNVDLSGRQERKQIFKGKTFIFLNAKQHKKLSSAVVFGGGEARLITEENEEEHNFFLAPGTCVVDTGITNSQTLIPDCQKKWIQSIMDMLQRQGLRPIPEAEIGLAVIFMTTKNYCDPQGHPSTGLKTTTPGPSLSQGVSVDEKLMPSAPVNTTTYVADTESEQADTWDLSERPKEIKVSKMEQKFRMLSQDAPTVKESCKTSSNNNSMVSNTLAKMRIPNYQLSPTKLPSINKSKDRASQQQQTNSIRNYFQPSTKKRERDEENQEMSSCKSARIETSCSLLEQTQPATPSLWKNKEQHLSENEPVDTNSDNNLFTDTDLKSIVKNSASKSHAAEKLRSNKKREMDDVAIEDEVLEQLFKDTKPELEIDVKVQKQEEDVNVRKRPRMDIETNDTFSDEAVPESSKISQENEIGKKRELKEDSLWSAKEISNNDKLQDDSEMLPKKLLLTEFRSLVIKNSTSRNPSGINDDYGQLKNFKKFKKVTYPGAGKLPHIIGGSDLIAHHARKNTELEEWLRQEMEVQNQHAKEESLADDLFRYNPYLKRRR
partner: B1 chain

Variants of: B1
Conditions: with nbn_human NBN

effect of a mutation on the interaction	Variant
disrupting interaction strength	T210A

Variants of: B2
Conditions: with tcof_human TCOF1, Q13428

effect of a mutation on the interaction	Variant
disrupting interaction strength	R28A;K160M

Variants of: B2
Conditions: with tcof_human TCOF1, Q13428
Remark: another data set of the same source

effect of a mutation on the interaction	Variant
disrupting interaction strength	R28A
